Measured values as given in US20140087995A1 (published 2014).
Numbered stars: 1 amine (or outer) side, 2 acyl side, 3 side chain; on linkers, the order of the positions; unused ones are H or OH. Bridge positions count the residues as written; N and C are the ends. Side chains are listed from the residue outwards. Ends that are not written are not given here. * marks the point of attachment. C20 diacid = O=C(O)CCCCCCCCCCCCCCCCCCC(=O)*; C18 diacid = O=C(O)CCCCCCCCCCCCCCCCC(=O)*; C16 diacid = O=C(O)CCCCCCCCCCCCCCC(=O)*; γGlu = O=C(O)[C@H](CCC(=O)[*:2])N[*:1]; C14 diacid = O=C(O)CCCCCCCCCCCCC(=O)*; AEEA = NCCOCCOCC(=O)O

T1: human calcitonin receptor (human, UniProt P30988 25-474)
T1 sequence (looked up): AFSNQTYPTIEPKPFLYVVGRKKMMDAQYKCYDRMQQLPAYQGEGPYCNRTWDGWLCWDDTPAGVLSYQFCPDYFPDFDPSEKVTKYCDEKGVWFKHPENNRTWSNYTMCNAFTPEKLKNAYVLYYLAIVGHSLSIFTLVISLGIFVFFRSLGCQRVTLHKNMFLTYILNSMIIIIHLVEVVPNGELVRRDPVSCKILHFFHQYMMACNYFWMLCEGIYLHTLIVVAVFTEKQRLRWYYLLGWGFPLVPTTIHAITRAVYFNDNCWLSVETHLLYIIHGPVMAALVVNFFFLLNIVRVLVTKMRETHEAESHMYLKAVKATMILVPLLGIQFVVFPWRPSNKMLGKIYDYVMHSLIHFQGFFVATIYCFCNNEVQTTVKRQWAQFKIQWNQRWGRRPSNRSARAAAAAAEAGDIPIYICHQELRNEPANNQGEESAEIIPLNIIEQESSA

T2: human amylin 3(a) receptor (human calcitonin receptor co-expressed with RAMP-3) (human, UniProt P30988 25-474; O60896 24-148, limits assumed)
T2 sequence (looked up) 1: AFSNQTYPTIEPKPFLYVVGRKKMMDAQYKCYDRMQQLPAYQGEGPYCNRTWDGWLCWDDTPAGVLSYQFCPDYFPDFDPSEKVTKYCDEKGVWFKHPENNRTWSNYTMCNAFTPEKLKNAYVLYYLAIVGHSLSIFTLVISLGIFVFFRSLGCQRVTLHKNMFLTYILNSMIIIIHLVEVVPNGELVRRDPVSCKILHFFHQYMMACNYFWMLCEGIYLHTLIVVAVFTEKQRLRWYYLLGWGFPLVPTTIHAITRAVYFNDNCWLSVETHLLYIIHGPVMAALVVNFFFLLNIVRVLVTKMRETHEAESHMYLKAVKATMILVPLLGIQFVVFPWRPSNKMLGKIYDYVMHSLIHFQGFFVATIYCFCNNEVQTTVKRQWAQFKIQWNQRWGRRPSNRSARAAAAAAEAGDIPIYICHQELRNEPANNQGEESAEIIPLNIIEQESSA
T2 sequence (looked up) 2: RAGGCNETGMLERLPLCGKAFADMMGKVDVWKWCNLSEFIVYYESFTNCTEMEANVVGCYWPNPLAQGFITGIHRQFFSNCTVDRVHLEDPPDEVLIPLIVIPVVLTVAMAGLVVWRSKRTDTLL


Assays:
[1] = target: T1, human calcitonin receptor; assay: cell-based or functional assay
[2] = target: T2, human amylin 3(a) receptor (human …); assay: cell-based or functional assay

Binder	Ratio hCT/hAmylin funct. [1]	hCTR funct. EC50 [1] [nM]	hAmylin-R funct. EC50 [2] [nM]
K([AEEA-γGlu-C20 diacid])CNTATCATQRLAHFLRHSSPNFGAIPSSTNVGHNTY-NH2 (disulfide 2-7; N-terminus assumed; SMILES CC[C@H](C)[C@H](NC(=O)[C@H](C)NC(=O)CNC(=O)[C@H](Cc1ccccc1)NC(=O)[C@H](CC(N)=O)NC(=O)[C@@H]1CCCN1C(=O)[C@H](CO)NC(=O)[C@H](CO)NC(=O)[C@H](Cc1c[nH]cn1)NC(=O)[C@H](CCCNC(=N)N)NC(=O)[C@H](CC(C)C)NC(=O)[C@H](Cc1ccccc1)NC(=O)[C@H](Cc1c[nH]cn1)NC(=O)[C@H](C)NC(=O)[C@H](CC(C)C)NC(=O)[C@H](CCCNC(=N)N)NC(=O)[C@H](CCC(N)=O)NC(=O)[C@@H](NC(=O)[C@H](C)NC(=O)[C@@H]1CSSC[C@H](NC(=O)[C@@H](N)CCCCNC(=O)COCCOCCNC(=O)CC[C@H](NC(=O)CCCCCCCCCCCCCCCCCCC(=O)O)C(=O)O)C(=O)N[C@@H](CC(N)=O)C(=O)N[C@@H]([C@@H](C)O)C(=O)N[C@@H](C)C(=O)N[C@@H]([C@@H](C)O)C(=O)N1)[C@@H](C)O)C(=O)N1CCC[C@H]1C(=O)N[C@@H](CO)C(=O)N[C@@H](CO)C(=O)N[C@H](C(=O)N[C@@H](CC(N)=O)C(=O)N[C@H](C(=O)NCC(=O)N[C@@H](Cc1c[nH]cn1)C(=O)N[C@@H](CC(N)=O)C(=O)N[C@H](C(=O)N[C@@H](Cc1ccc(O)cc1)C(N)=O)[C@@H](C)O)C(C)C)[C@@H](C)O, also called compound 80)	15.4	2.14	0.139
K([γGlu-C14 diacid])CNTATCATQRLANFLRHSSPNFGAIPSSTNVGHNTY-NH2 (disulfide 2-7; N-terminus assumed; SMILES CC[C@H](C)[C@H](NC(=O)[C@H](C)NC(=O)CNC(=O)[C@H](Cc1ccccc1)NC(=O)[C@H](CC(N)=O)NC(=O)[C@@H]1CCCN1C(=O)[C@H](CO)NC(=O)[C@H](CO)NC(=O)[C@H](Cc1c[nH]cn1)NC(=O)[C@H](CCCNC(=N)N)NC(=O)[C@H](CC(C)C)NC(=O)[C@H](Cc1ccccc1)NC(=O)[C@H](CC(N)=O)NC(=O)[C@H](C)NC(=O)[C@H](CC(C)C)NC(=O)[C@H](CCCNC(=N)N)NC(=O)[C@H](CCC(N)=O)NC(=O)[C@@H](NC(=O)[C@H](C)NC(=O)[C@@H]1CSSC[C@H](NC(=O)[C@@H](N)CCCCNC(=O)CC[C@H](NC(=O)CCCCCCCCCCCCC(=O)O)C(=O)O)C(=O)N[C@@H](CC(N)=O)C(=O)N[C@@H]([C@@H](C)O)C(=O)N[C@@H](C)C(=O)N[C@@H]([C@@H](C)O)C(=O)N1)[C@@H](C)O)C(=O)N1CCC[C@H]1C(=O)N[C@@H](CO)C(=O)N[C@@H](CO)C(=O)N[C@H](C(=O)N[C@@H](CC(N)=O)C(=O)N[C@H](C(=O)NCC(=O)N[C@@H](Cc1c[nH]cn1)C(=O)N[C@@H](CC(N)=O)C(=O)N[C@H](C(=O)N[C@@H](Cc1ccc(O)cc1)C(N)=O)[C@@H](C)O)C(C)C)[C@@H](C)O) [N^ε1-[(4S)-4-carboxy-4-(13-carboxytridecanoylamino)butanoyl]-[Arg17,Pro21,Pro27,His34]-h-amylin]	38.8	1.09	0.028
K([γGlu-C16 diacid])CNTATCATQRLANFLRHSSPNFGAIPSSTNVGHNTY-NH2 (disulfide 2-7; N-terminus assumed; SMILES CC[C@H](C)[C@H](NC(=O)[C@H](C)NC(=O)CNC(=O)[C@H](Cc1ccccc1)NC(=O)[C@H](CC(N)=O)NC(=O)[C@@H]1CCCN1C(=O)[C@H](CO)NC(=O)[C@H](CO)NC(=O)[C@H](Cc1c[nH]cn1)NC(=O)[C@H](CCCNC(=N)N)NC(=O)[C@H](CC(C)C)NC(=O)[C@H](Cc1ccccc1)NC(=O)[C@H](CC(N)=O)NC(=O)[C@H](C)NC(=O)[C@H](CC(C)C)NC(=O)[C@H](CCCNC(=N)N)NC(=O)[C@H](CCC(N)=O)NC(=O)[C@@H](NC(=O)[C@H](C)NC(=O)[C@@H]1CSSC[C@H](NC(=O)[C@@H](N)CCCCNC(=O)CC[C@H](NC(=O)CCCCCCCCCCCCCCC(=O)O)C(=O)O)C(=O)N[C@@H](CC(N)=O)C(=O)N[C@@H]([C@@H](C)O)C(=O)N[C@@H](C)C(=O)N[C@@H]([C@@H](C)O)C(=O)N1)[C@@H](C)O)C(=O)N1CCC[C@H]1C(=O)N[C@@H](CO)C(=O)N[C@@H](CO)C(=O)N[C@H](C(=O)N[C@@H](CC(N)=O)C(=O)N[C@H](C(=O)NCC(=O)N[C@@H](Cc1c[nH]cn1)C(=O)N[C@@H](CC(N)=O)C(=O)N[C@H](C(=O)N[C@@H](Cc1ccc(O)cc1)C(N)=O)[C@@H](C)O)C(C)C)[C@@H](C)O) [N^ε1-[(4S)-4-carboxy-4-(15-carboxypentadecanoylamino)butanoyl]-[Arg17,Pro21,Pro27,His34]-h-amylin]	65.1	2.21	0.034

Results, then the binder that gave them:

Ratio hCT/hAmylin funct. [1]	hCTR funct. EC50 [1] [nM]	hAmylin-R funct. EC50 [2] [nM]	Binder
9.7	1.15	0.118	K([γGlu-C20 diacid])CNTATCATQRLAAFLRHSSPNFGAIPSSTNVGHNTY-NH2 (disulfide 2-7; N-terminus assumed; SMILES CC[C@H](C)[C@H](NC(=O)[C@H](C)NC(=O)CNC(=O)[C@H](Cc1ccccc1)NC(=O)[C@H](CC(N)=O)NC(=O)[C@@H]1CCCN1C(=O)[C@H](CO)NC(=O)[C@H](CO)NC(=O)[C@H](Cc1c[nH]cn1)NC(=O)[C@H](CCCNC(=N)N)NC(=O)[C@H](CC(C)C)NC(=O)[C@H](Cc1ccccc1)NC(=O)[C@H](C)NC(=O)[C@H](C)NC(=O)[C@H](CC(C)C)NC(=O)[C@H](CCCNC(=N)N)NC(=O)[C@H](CCC(N)=O)NC(=O)[C@@H](NC(=O)[C@H](C)NC(=O)[C@@H]1CSSC[C@H](NC(=O)[C@@H](N)CCCCNC(=O)CC[C@H](NC(=O)CCCCCCCCCCCCCCCCCCC(=O)O)C(=O)O)C(=O)N[C@@H](CC(N)=O)C(=O)N[C@@H]([C@@H](C)O)C(=O)N[C@@H](C)C(=O)N[C@@H]([C@@H](C)O)C(=O)N1)[C@@H](C)O)C(=O)N1CCC[C@H]1C(=O)N[C@@H](CO)C(=O)N[C@@H](CO)C(=O)N[C@H](C(=O)N[C@@H](CC(N)=O)C(=O)N[C@H](C(=O)NCC(=O)N[C@@H](Cc1c[nH]cn1)C(=O)N[C@@H](CC(N)=O)C(=O)N[C@H](C(=O)N[C@@H](Cc1ccc(O)cc1)C(N)=O)[C@@H](C)O)C(C)C)[C@@H](C)O, also called compound 93)
60.9	5.85	0.096	K([γGlu-C18 diacid])CNTATCATQRLANFLRHSSPNFGAIPSSTNVGHNTY-NH2 (disulfide 2-7; N-terminus assumed; SMILES CC[C@H](C)[C@H](NC(=O)[C@H](C)NC(=O)CNC(=O)[C@H](Cc1ccccc1)NC(=O)[C@H](CC(N)=O)NC(=O)[C@@H]1CCCN1C(=O)[C@H](CO)NC(=O)[C@H](CO)NC(=O)[C@H](Cc1c[nH]cn1)NC(=O)[C@H](CCCNC(=N)N)NC(=O)[C@H](CC(C)C)NC(=O)[C@H](Cc1ccccc1)NC(=O)[C@H](CC(N)=O)NC(=O)[C@H](C)NC(=O)[C@H](CC(C)C)NC(=O)[C@H](CCCNC(=N)N)NC(=O)[C@H](CCC(N)=O)NC(=O)[C@@H](NC(=O)[C@H](C)NC(=O)[C@@H]1CSSC[C@H](NC(=O)[C@@H](N)CCCCNC(=O)CC[C@H](NC(=O)CCCCCCCCCCCCCCCCC(=O)O)C(=O)O)C(=O)N[C@@H](CC(N)=O)C(=O)N[C@@H]([C@@H](C)O)C(=O)N[C@@H](C)C(=O)N[C@@H]([C@@H](C)O)C(=O)N1)[C@@H](C)O)C(=O)N1CCC[C@H]1C(=O)N[C@@H](CO)C(=O)N[C@@H](CO)C(=O)N[C@H](C(=O)N[C@@H](CC(N)=O)C(=O)N[C@H](C(=O)NCC(=O)N[C@@H](Cc1c[nH]cn1)C(=O)N[C@@H](CC(N)=O)C(=O)N[C@H](C(=O)N[C@@H](Cc1ccc(O)cc1)C(N)=O)[C@@H](C)O)C(C)C)[C@@H](C)O) [N^ε1-[(4S)-4-carboxy-4-(17-carboxyheptadecanoylamino)butanoyl]-[Arg17,Pro21,Pro27,His34]-h-amylin]
